Test results: US11078245B2, “Colon and pancreas cancer peptidomimetics” (PRECISION BIOLOGICS, INC., priority 2010, dated 2021)

Legend:
[1] = test system: Colorectal cancer biopsies; test: IHC staining of patient tumor biopsies with NEO-101; type: binding, human
Description: (§1) Patients enrolled on the clinical diagnostic study agreed to provide their tumor biopsy or surgical specimen to be stained immunohistochemically with NEO-101. Tumor sections were prepared as slides, and two additional slides were prepared for negative control (human IgG1) and positive control (cytokeratin) staining to ensure quality controls for the IHC method. More specifically, tumor biopsy specimens from colorectal and pancreas cancer patients were deparaffinized at about 60° C. for 30 min prior to staining with NEO-101. Subsequently, all staining steps were carried out at about 25° C. Slides (4 μm) were blocked with Peroxo-Bloc® inhibitor (Zymed Laboratories) for about 2 min, rinsed with phosphate-buffered saline (PBS), and blocked with CAS (Zymed) for an additional about 10 minutes. Slides were stained with about 10 μg/mL of biotin-labeled NEO-101 for 1 hour, and washed three times with PBS containing 0.05% Tween®-20 non-ionic detergent. […] A 1:400 dilution of peroxidase-conjugated streptavidin (Dako North America, Inc.) was then applied to the slides for about 30 minutes and slides were washed three times. A solution of DAB (Zymed) was applied for about 2-3 minutes then rinsed with PBS. A solution of hematoxylin was then applied for about 3 minutes and rinsed with tap water until clear. The slides were dehydrated with xylene and a coverslip was added using Permount® mounting medium. Additional consecutive slides were stained with human cytokeratin AE1/AE3 (Abcam plc) as a positive control, and human IgG1 isotype as a negative control (AXXORA, LLC).
(§2) All antibodies were biotinylated prior to use and tested independently at various concentrations using human tumor tissues known to react with the antibodies. Primary antibody (NEO-101) was used at about 10 μg/mL, detected with streptavidin-horseradish peroxidase conjugate, and mounted on slides. A positive staining scale ranging from +1 to +5 was applied to the staining results, measured by light microscopy. Tissues stained with NEO-101 were considered positive (+1 to +5) for an average of 79% of the patient tumor samples (30 of 38 of both colorectal and pancreatic cancer biopsies) including the 5 pancreatic tumor samples. Tissues that were negative or considered weak staining by the immunohistochemist were considered negative. These staining results are similar to results from several other studies completed with antibodies using tissue array slides, and both frozen and paraffin-embedded surgical specimens.

[2] = test system: Pancreatic cancer biopsies; test: as above; type: binding, human
Description: as §1, §2

CFPAC-1 cells = test: Immunofluorescence staining with MUC5AC antibodies; type: cell-based, human; settings: 2 μg/ml antibody
Description: LS174T and CFPAC-1 cells were grown on cover slips coated in FBS for 48 hours. Cells were then fixed with 4% PFA in PBS, washed with PBS, permeabilized with 0.2% Triton X-100, washed with PBS and blocked with 1% BSA in PBS. Cells were incubated with either 2 μg/ml NEO-101, MS-X, 2-11M1, H160, 351-450, 2-12M1, or 1-13M1. Cells were washed with PBS and then second antibody was added anti-human-FITC, anti-mouse-FITC or anti-rabbit-FITC (1:500), cells were washed and mounted on slides with DAPI hard mount. Cover slides were allowed to sit over night at 4° C. Slides were visualized with a Nikon Eclipse Ti microscope with an Andor camera.

Colo-205 Colorectal = test: Flow cytometry tumor cell binding; type: cell-based, human
Description: (§3) See International Patent Application No. PCT/US2011/41502.
(§4) FACs data showing NEO-101 antibody binding to colon cancer and pancreatic cancer cell lines. Cells were washed and suspended in either 2 μg/ml NEO-101-FITC or isotype control antibody-FITC for 1 hour, washed and then subjected to FACS analysis. Experiments with all cell lines were repeated at least three times. […] DAPI was used to stain the nucleus. […] The staining pattern of these pancreatic and colorectal tumor cells was predominantly membrane-associated, consistent with the expression profile of MUC5AC.

LS174T Colorectal = test: Flow cytometry tumor cell binding; type: cell-based, human
Description: as §3, §4

SW480 Colorectal = test: Flow cytometry tumor cell binding; type: cell-based, human
Description: as §3, §4

CFPAC-1 Pancreatic = test: Flow cytometry tumor cell binding; type: cell-based, human
Description: as §3, §4

LS174T (Colorectal) = test: ADCC 4-hour 111-Indium release assay; type: cell-based, human
Description: (§5) The NEO-101 antibody was tested for antibody-dependent cell cytotoxicity (ADCC) activity against several colorectal and pancreatic tumor cell targets in vitro. The ADCC assay measures the amount of cell cytotoxicity that an antibody facilitates in a defined time period by the release of radiolabelled cytoplasmic proteins into the culture medium. […] The specific lytic activity was titratable with the number of effector cells in the assay.

Colo-205 (Colorectal) = test: ADCC 4-hour 111-Indium release assay; type: cell-based, human
Description: as §5

SW1463 (Colorectal) = test: ADCC 4-hour 111-Indium release assay; type: cell-based, human
Description: as §5

PANC-1 (Pancreatic) = test: ADCC 4-hour 111-Indium release assay; type: cell-based, human
Description: as §5

AsPC-1 (Pancreatic) = test: ADCC 4-hour 111-Indium release assay; type: cell-based, human
Description: as §5

SW620 (Colorectal) = test: ADCC 4-hour 111-Indium release assay; type: cell-based, human
Description: as §5

CFPAC-1 (Pancreatic) = test: ADCC 4-hour 111-Indium release assay; type: cell-based, human
Description: as §5

SK-MEL (Melanoma) = test: ADCC 4-hour 111-Indium release assay; type: cell-based, human
Description: as §5

DU145 (Prostate) = test: ADCC 4-hour 111-Indium release assay; type: cell-based, human

B1: NEO-101: Chimeric NEO-101 antibody, engineered in CHO-DG44 production cell clone 4B7; targets a variant of MUC5AC (protein)
light: QVVLTQSPVIMSASPGEKVTMTCSASSSISYMYWYQQKPGTSPKRWIYDTSKLASGVPARFSGSGSGTSYSLTISNMEAGDAATYYCHQRDSYPWTFGGGTNLEIK
heavy: QVQLKESGPDLVAPSQSLSITCTVSGFSLSKFGVNWVRQPPGKGLEWLGVIWGDGSTSYNSGLISRLSISKENSKSQVFLKLNSLQADDTATYYCVKPGGDYWGHGTSVTVSS
[1]
  % Positive by IHC with NEO-1O1: 76%
  Positive by IHC, subjects/total: (25/33)
[2]
  % Positive by IHC with NEO-1O1: 100%
  Positive by IHC, subjects/total: (5/5)
CFPAC-1 cells
  cells stained: about 50%
Colo-205 Colorectal
  % Cells Stained: 94.67%
  mfi: 175
Colo-205 Colorectal; 2 μg/ml FITC antibody, FACS
  Percent positive: 94.67%
LS174T Colorectal; LS174, 2 μg/ml FITC antibody, FACS
  Percent positive: 89.72%
LS174T Colorectal; LS174T
  % Cells Stained: 89.72%
  mfi: 103
SW480 Colorectal
  % Cells Stained: 58.98%
  mfi: 118
SW480 Colorectal; 2 μg/ml FITC antibody, FACS
  Percent positive: 58.98%
CFPAC-1 Pancreatic; CFPAC-1
  % Cells Stained: 52.56%
  mfi: 59
CFPAC-1 Pancreatic; CFPAC, 2 μg/ml FITC antibody, FACS
  Percent positive: 52.56%
LS174T (Colorectal); Effector:Target 12.5:1
  % Specific Killing (±SEM): 9.5 ± 0.5%
LS174T (Colorectal); Effector:Target 25:1
  % Specific Killing (±SEM): 18.5 ± 4.1%
LS174T (Colorectal); Effector:Target 50:1
  % Specific Killing (±SEM): 26.8 ± 2.9%
Colo-205 (Colorectal); Effector:Target 12.5:1
  % Specific Killing (±SEM): 32.8 ± 2.0%
Colo-205 (Colorectal); Effector:Target 25:1
  % Specific Killing (±SEM): 46.4 ± 1.6%
Colo-205 (Colorectal); Effector:Target 50:1
  % Specific Killing (±SEM): 66.7 ± 0.6%
SW1463 (Colorectal); Effector:Target 12.5:1
  % Specific Killing (±SEM): 17.9 ± 1.7%
SW1463 (Colorectal); Effector:Target 25:1
  % Specific Killing (±SEM): 25.5 ± 0.6%
SW1463 (Colorectal); Effector:Target 50:1
  % Specific Killing (±SEM): 33.8 ± 1.0%
PANC-1 (Pancreatic); Effector:Target 12.5:1
  % Specific Killing (±SEM): 21.2 ± 0.6%
PANC-1 (Pancreatic); Effector:Target 25:1
  % Specific Killing (±SEM): 33.2 ± 3.3%
PANC-1 (Pancreatic); Effector:Target 50:1
  % Specific Killing (±SEM): 46.8 ± 2.1%
AsPC-1 (Pancreatic); Effector:Target 12.5:1
  % Specific Killing (±SEM): 26.5 ± 6.7%
AsPC-1 (Pancreatic); Effector:Target 25:1
  % Specific Killing (±SEM): 36.2 ± 2.6%
AsPC-1 (Pancreatic); Effector:Target 50:1
  % Specific Killing (±SEM): 44.5 ± 6.8%
SW620 (Colorectal); Effector:Target 12.5:1
  % Specific Killing (±SEM): 51.5 ± 0.9%
SW620 (Colorectal); Effector:Target 25:1
  % Specific Killing (±SEM): 61.0 ± 1.8%
SW620 (Colorectal); Effector:Target 50:1
  % Specific Killing (±SEM): 63.7 ± 2.9%
CFPAC-1 (Pancreatic); Effector:Target 12.5:1
  % Specific Killing (±SEM): 11.1 ± 1.6%
CFPAC-1 (Pancreatic); Effector:Target 25:1
  % Specific Killing (±SEM): 23.2 ± 2.2%
CFPAC-1 (Pancreatic); Effector:Target 50:1
  % Specific Killing (±SEM): 26.9 ± 1.6%
SK-MEL (Melanoma); Effector:Target 12.5:1
  % Specific Killing (±SEM): 2.3 ± 0.6%
SK-MEL (Melanoma); Effector:Target 25:1
  % Specific Killing (±SEM): 3.3 ± 1.1%
SK-MEL (Melanoma); Effector:Target 50:1
  % Specific Killing (±SEM): 4.6 ± 1.1%
DU145 (Prostate); Effector:Target 12.5:1
  % Specific Killing (±SEM): −0.3 ± 0.1%
DU145 (Prostate); Effector:Target 25:1
  % Specific Killing (±SEM): 0.3 ± 0.8%
DU145 (Prostate); Effector:Target 50:1
  % Specific Killing (±SEM): −0.5 ± 0.3%
